Measured values taken from article PMC9482650, “Quantitative fragmentomics allow affinity mapping of interactomes” (Nature Communications, 2022).

B1: FRMPD4, Q14CM0 (peptide)
chain: RLPKIKETTV
B2: ATP2B4, P23634 (peptide)
chain: SSLQSLETSV
B3: DOCK4, Q8N1I0 (peptide)
chain: RPLPRKVSQL

The binders below were run against T1, PTPN4, P29074 (assay: holdup assay). Conditions: plain residues with an end cap or a label only (N-terminal biotin on a linker: ttds).
T1 sequence (P29074 512-599, limits assumed, looked up): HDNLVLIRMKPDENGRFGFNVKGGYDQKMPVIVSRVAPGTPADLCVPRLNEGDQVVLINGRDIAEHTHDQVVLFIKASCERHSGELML
Parameters: key: below the threshold = too weak to quantify, mostly under pKd 3.1 to 4

Binder	pKd
B1	5.14
B2	4.88
B3	below the threshold

Each binder was assayed against T2, PDZD2_3, O15018 (assay: holdup assay). Conditions: plain residues with an end cap or a label only (N-terminal biotin on a linker: ttds).
T2 sequence (O15018 581-682, limits assumed, looked up): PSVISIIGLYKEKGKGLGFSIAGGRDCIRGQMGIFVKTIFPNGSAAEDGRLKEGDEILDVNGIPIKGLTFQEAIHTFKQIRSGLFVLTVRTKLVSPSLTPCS
Parameters: key: below the threshold = too weak to quantify, mostly under pKd 3.1 to 4

Binder	pKd
B1	below the threshold
B2	below the threshold
B3	below the threshold

The binders below were run against MAGI1_3, Q96QZ7 (assay: holdup assay). Conditions: plain residues with an end cap or a label only (N-terminal biotin on a linker: ttds).
MAGI1_3, Q96QZ7, sequence (Q96QZ7 638-725): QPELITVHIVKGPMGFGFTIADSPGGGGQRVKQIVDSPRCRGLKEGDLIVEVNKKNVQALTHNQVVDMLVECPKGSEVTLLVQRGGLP
Parameters: key: below the threshold = too weak to quantify, mostly under pKd 3.1 to 4

Binder	pKd
B1	4.82
B2	4.44
B3	below the threshold

The binders below were run against RIMS1, Q86UR5 (assay: holdup assay). Conditions: plain residues with an end cap or a label only (N-terminal biotin on a linker: ttds).
RIMS1, Q86UR5, sequence (Q86UR5 584-692): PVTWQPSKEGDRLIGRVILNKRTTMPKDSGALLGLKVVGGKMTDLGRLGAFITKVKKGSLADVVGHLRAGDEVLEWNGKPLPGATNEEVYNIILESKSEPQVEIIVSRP
Parameters: key: below the threshold = too weak to quantify, mostly under pKd 3.1 to 4

Binder	pKd
B1	below the threshold
B2	below the threshold
B3	below the threshold

Each binder was assayed against T3, PARD6B, Q9BYG5 (assay: holdup assay). Conditions: plain residues with an end cap or a label only (N-terminal biotin on a linker: ttds).
T3 sequence (Q9BYG5 152-260, limits assumed, looked up): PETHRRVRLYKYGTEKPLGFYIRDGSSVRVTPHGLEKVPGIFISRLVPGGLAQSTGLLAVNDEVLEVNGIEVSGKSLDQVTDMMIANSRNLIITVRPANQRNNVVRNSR
Parameters: key: below the threshold = too weak to quantify, mostly under pKd 3.1 to 4

Binder	pKd
B1	below the threshold
B2	below the threshold
B3	below the threshold

These binders were tested against T4, MPDZ_2, O75970 (assay: holdup assay). Conditions: plain residues with an end cap or a label only (N-terminal biotin on a linker: ttds).
T4 sequence (O75970 252-347, limits assumed, looked up): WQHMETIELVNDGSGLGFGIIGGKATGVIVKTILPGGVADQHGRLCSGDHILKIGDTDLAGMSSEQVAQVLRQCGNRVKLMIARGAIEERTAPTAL
Parameters: key: below the threshold = too weak to quantify, mostly under pKd 3.1 to 4

Binder	pKd
B1	below the threshold
B2	below the threshold
B3	below the threshold

Each binder was assayed against PDLIM4, P50479 (assay: holdup assay). Conditions: plain residues with an end cap or a label only (N-terminal biotin on a linker: ttds).
PDLIM4, P50479, sequence (P50479 1-83): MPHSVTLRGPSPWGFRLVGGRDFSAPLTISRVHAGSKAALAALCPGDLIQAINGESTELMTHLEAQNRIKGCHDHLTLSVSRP
Parameters: key: below the threshold = too weak to quantify, mostly under pKd 3.1 to 4

Binder	pKd
B1	below the threshold
B2	below the threshold
B3	below the threshold

The binders below were run against T5, INTU, Q9ULD6 (assay: holdup assay). Conditions: plain residues with an end cap or a label only (N-terminal biotin on a linker: ttds).
T5 sequence (Q9ULD6 180-273, limits assumed, looked up): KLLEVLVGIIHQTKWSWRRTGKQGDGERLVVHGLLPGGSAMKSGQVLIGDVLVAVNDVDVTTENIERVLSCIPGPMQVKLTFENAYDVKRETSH
Parameters: key: below the threshold = too weak to quantify, mostly under pKd 3.1 to 4

Binder	pKd
B1	below the threshold
B2	below the threshold

The binders below were run against T6, SIPA1L3, O60292 (assay: holdup assay). Conditions: plain residues with an end cap or a label only (N-terminal biotin on a linker: ttds).
T6 sequence (O60292 961-1052, limits assumed, looked up): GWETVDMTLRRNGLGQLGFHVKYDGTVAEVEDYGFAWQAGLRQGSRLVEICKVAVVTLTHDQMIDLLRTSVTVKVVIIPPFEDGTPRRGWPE
Parameters: key: below the threshold = too weak to quantify, mostly under pKd 3.1 to 4

Binder	pKd
B1	below the threshold
B2	below the threshold
B3	below the threshold

These binders were tested against T7, SYNPO2L, Q9H987 (assay: holdup assay). Conditions: plain residues with an end cap or a label only (N-terminal biotin on a linker: ttds).
T7 sequence (Q9H987 1-98, limits assumed, looked up): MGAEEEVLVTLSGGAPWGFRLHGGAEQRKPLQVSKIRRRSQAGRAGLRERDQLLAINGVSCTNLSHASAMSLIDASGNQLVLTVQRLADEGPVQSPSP
Parameters: key: below the threshold = too weak to quantify, mostly under pKd 3.1 to 4

Binder	pKd
B1	below the threshold
B2	below the threshold
B3	below the threshold

What follows are binders tested against T8, PTPN13_5, Q12923 (assay: holdup assay). Conditions: plain residues with an end cap or a label only (N-terminal biotin on a linker: ttds).
T8 sequence (Q12923 1877-1975, limits assumed, looked up): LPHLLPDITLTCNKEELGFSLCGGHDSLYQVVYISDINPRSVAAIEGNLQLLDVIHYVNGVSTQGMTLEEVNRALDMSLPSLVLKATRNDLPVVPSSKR
Parameters: key: below the threshold = too weak to quantify, mostly under pKd 3.1 to 4

Binder	pKd
B1	below the threshold
B2	below the threshold
B3	below the threshold

These binders were tested against T9, APBA3_2, O96018 (assay: holdup assay). Conditions: plain residues with an end cap or a label only (N-terminal biotin on a linker: ttds).
T9 sequence (O96018 480-570, limits assumed, looked up): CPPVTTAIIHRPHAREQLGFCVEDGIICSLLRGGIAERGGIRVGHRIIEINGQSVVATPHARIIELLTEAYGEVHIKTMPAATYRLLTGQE
Parameters: key: below the threshold = too weak to quantify, mostly under pKd 3.1 to 4

Binder	pKd
B1	4.47
B2	4.21
B3	below the threshold

These binders were tested against T10, SHROOM2, Q13796 (assay: holdup assay). Conditions: plain residues with an end cap or a label only (N-terminal biotin on a linker: ttds).
T10 sequence (Q13796 21-118, limits assumed, looked up): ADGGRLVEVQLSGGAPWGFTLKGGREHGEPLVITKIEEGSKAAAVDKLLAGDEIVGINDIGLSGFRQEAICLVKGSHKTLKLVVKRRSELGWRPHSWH
Parameters: key: below the threshold = too weak to quantify, mostly under pKd 3.1 to 4

Binder	pKd
B1	below the threshold
B2	below the threshold
B3	below the threshold

These binders were tested against T11, USH1C_3, Q9Y6N9 (assay: holdup assay). Conditions: plain residues with an end cap or a label only (N-terminal biotin on a linker: ttds).
T11 sequence (Q9Y6N9 447-547, limits assumed, looked up): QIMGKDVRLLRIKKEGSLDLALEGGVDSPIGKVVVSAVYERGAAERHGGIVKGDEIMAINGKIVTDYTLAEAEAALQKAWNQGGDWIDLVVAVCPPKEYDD
Parameters: key: below the threshold = too weak to quantify, mostly under pKd 3.1 to 4

Binder	pKd
B1	below the threshold
B2	below the threshold
B3	below the threshold

Each binder was assayed against T12, TJP3_2, O95049 (assay: holdup assay). Conditions: plain residues with an end cap or a label only (N-terminal biotin on a linker: ttds).
T12 sequence (O95049 190-282, limits assumed, looked up): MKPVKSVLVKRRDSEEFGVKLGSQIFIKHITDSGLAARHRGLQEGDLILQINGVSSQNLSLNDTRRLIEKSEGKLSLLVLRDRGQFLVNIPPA
Parameters: key: below the threshold = too weak to quantify, mostly under pKd 3.1 to 4

Binder	pKd
B1	below the threshold
B2	below the threshold
B3	below the threshold

These binders were tested against T13, PDZD8, Q8NEN9 (assay: holdup assay). Conditions: plain residues with an end cap or a label only (N-terminal biotin on a linker: ttds).
T13 sequence (Q8NEN9 361-459, limits assumed, looked up): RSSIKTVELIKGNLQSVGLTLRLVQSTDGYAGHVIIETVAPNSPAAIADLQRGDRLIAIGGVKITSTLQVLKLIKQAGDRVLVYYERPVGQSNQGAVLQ
Parameters: key: below the threshold = too weak to quantify, mostly under pKd 3.1 to 4

Binder	pKd
B1	below the threshold
B2	below the threshold
B3	below the threshold

What follows are binders tested against PARD3B_3, Q8TEW8 (assay: holdup assay). Conditions: plain residues with an end cap or a label only (N-terminal biotin on a linker: ttds).
PARD3B_3, Q8TEW8, sequence (Q8TEW8 490-594): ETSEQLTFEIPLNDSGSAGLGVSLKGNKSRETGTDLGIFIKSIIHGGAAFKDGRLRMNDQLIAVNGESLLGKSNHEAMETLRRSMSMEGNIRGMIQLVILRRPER
Parameters: key: below the threshold = too weak to quantify, mostly under pKd 3.1 to 4

Binder	pKd
B1	below the threshold
B2	below the threshold
B3	below the threshold

These binders were tested against RGS3, P49796-9 (assay: holdup assay). Conditions: plain residues with an end cap or a label only (N-terminal biotin on a linker: ttds).
RGS3, P49796-9, sequence (P49796 other isoform, or with tags, fused parts or gaps): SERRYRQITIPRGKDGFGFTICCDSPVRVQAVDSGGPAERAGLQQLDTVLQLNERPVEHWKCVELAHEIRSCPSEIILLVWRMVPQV
Parameters: key: below the threshold = too weak to quantify, mostly under pKd 3.1 to 4

Binder	pKd
B1	below the threshold
B2	below the threshold
B3	below the threshold

These binders were tested against T14, NHERF1_2, O14745 (assay: holdup assay). Conditions: plain residues with an end cap or a label only (N-terminal biotin on a linker: ttds).
T14 sequence (O14745 149-244, limits assumed, looked up): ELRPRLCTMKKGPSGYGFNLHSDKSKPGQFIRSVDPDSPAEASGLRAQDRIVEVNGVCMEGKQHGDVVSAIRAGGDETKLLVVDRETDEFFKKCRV
Parameters: key: below the threshold = too weak to quantify, mostly under pKd 3.1 to 4

Binder	pKd
B1	below the threshold
B2	below the threshold
B3	4.45

What follows are binders tested against T15, PDZD2_5, O15018 (assay: holdup assay). Conditions: plain residues with an end cap or a label only (N-terminal biotin on a linker: ttds).
T15 sequence (O15018 2617-2716, limits assumed, looked up): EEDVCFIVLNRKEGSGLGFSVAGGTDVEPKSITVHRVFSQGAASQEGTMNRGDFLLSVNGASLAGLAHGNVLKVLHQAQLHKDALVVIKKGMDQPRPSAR
Parameters: key: below the threshold = too weak to quantify, mostly under pKd 3.1 to 4

Binder	pKd
B1	below the threshold
B2	below the threshold
B3	below the threshold

What follows are binders tested against NHERF4_3, Q86UT5 (assay: holdup assay). Conditions: plain residues with an end cap or a label only (N-terminal biotin on a linker: ttds).
NHERF4_3, Q86UT5, sequence (Q86UT5 325-412): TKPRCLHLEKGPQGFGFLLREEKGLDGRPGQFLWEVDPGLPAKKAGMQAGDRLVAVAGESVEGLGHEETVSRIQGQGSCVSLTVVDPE
Parameters: key: below the threshold = too weak to quantify, mostly under pKd 3.1 to 4

Binder	pKd
B1	below the threshold
B2	below the threshold
B3	4.21
